Results published in IntAct's records for PubMed 19513107.

B1: Calcium-binding protein 39 (Homo sapiens), Q9Y376 (parent)
chain: MPFPFGKSHKSPADIVKNLKESMAVLEKQDISDKKAEKATEEVSKNLVAMKEILYGTNEKEPQTEAVAQLAQELYNSGLLSTLVADLQLIDFEGKKDVAQIFNNILRRQIGTRTPTVEYICTQQNILFMLLKGYESPEIALNCGIMLRECIRHEPLAKIILWSEQFYDFFRYVEMSTFDIASDAFATFKDLLTRHKLLSAEFLEQHYDRFFSEYEKLLHSENYVTKRQSLKLLGELLLDRHNFTIMTKYISKPENLKLMMNLLRDKSRNIQFEAFHVFKVFVANPNKTQPILDILLKNQAKLIEFLSKFQNDRTEDEQFNDEKTYLVKQIRDLKRPAQQEA
partner: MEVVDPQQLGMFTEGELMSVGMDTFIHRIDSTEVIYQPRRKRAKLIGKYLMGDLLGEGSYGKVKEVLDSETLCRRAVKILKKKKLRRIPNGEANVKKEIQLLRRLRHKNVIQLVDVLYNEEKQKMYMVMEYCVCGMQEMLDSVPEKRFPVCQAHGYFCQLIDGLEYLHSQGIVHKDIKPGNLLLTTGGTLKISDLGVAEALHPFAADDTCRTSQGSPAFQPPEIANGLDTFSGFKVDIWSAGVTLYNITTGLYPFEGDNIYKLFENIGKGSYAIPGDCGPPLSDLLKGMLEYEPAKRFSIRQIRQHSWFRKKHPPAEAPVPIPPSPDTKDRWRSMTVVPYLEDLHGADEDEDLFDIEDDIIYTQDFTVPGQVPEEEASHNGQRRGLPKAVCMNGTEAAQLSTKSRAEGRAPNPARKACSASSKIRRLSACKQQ
B2: Calcium-binding protein 39 (Homo sapiens), Q9Y376 (parent)
chain: B1 chain
partner: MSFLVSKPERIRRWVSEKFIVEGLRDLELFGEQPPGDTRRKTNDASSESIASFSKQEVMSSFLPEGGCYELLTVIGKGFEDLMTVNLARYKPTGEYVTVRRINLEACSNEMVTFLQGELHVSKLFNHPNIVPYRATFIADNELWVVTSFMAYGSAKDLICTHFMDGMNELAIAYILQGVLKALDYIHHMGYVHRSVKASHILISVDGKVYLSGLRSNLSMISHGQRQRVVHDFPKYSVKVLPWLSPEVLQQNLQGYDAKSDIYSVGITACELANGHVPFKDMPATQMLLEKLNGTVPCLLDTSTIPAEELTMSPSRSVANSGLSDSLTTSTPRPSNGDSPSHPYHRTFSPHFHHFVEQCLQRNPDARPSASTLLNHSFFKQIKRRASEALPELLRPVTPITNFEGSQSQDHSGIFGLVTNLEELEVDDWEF
B3: STE20-related kinase adapter protein alpha (Homo sapiens), Q7RTN6-1 (parent)
chain: B2 partner
partner: B1 chain
B4: STE20-related kinase adapter protein alpha (Homo sapiens), Q7RTN6-1 (parent)
chain: B2 partner
partner: B1 partner

Variants of: B1
Conditions: with stk11_human STK11, Q15831

effect of a mutation on the interaction	Variant
disrupting interaction	R227A;R240A;M260A
disrupting interaction	R227A;R240A

Variants of: B2
Conditions: with STRADA

Variant	effect of a mutation on the interaction
R107A	disrupting interaction
K96A	disrupting interaction
F92A	disrupting interaction
I145A	disrupting interaction
E93A	disrupting interaction
F178A	disrupting interaction

The remaining lines, values ahead:

effect of a mutation on the interaction	Variant
disrupting interaction	M260A
disrupting interaction	Y223A
disrupting interaction	S182A
disrupting interaction	Q228A

Variants of: B2
Conditions: with STRADA
Remark: another data set of the same source

effect of a mutation on the interaction	Variant
disrupting interaction	R227A;M260A

Variants of: B2
Conditions: with STRADA
Remark: another data set of the same source

effect of a mutation on the interaction	Variant
disrupting interaction	R227A

Variants of: B3
Conditions: with cab39_human CAB39, Q9Y376

effect of a mutation on the interaction	Variant
decreasing interaction	N109A
decreasing interaction	N126G
disrupting interaction	Y185F
disrupting interaction	I138Q
disrupting interaction	E105A

Variants of: B4
Conditions: with stk11_human STK11, Q15831

effect of a mutation on the interaction	Variant
disrupting interaction	G76D;G78D;K197E;R215E
decreasing interaction	G76D;G78D;R215E
disrupting interaction	G76D;G78D;K197E
